In the Human Domainome abundance scans (Beltran et al. 2025):
± gives the uncertainty stated by the source.

B1: POU domain, class 3, transcription factor 4, residues 280 to 335; numbered along this chain, P49335 (parent)
chain: KKRTSIEVSVKGVLETHFLKCPKPAAQEISSLADSLQLEKEVVRVWFCNRRQKEKR

Variants of: B1
Test: abundance fitness (aPCA) (normalised: wild type 0, dead -1); higher = more abundant; growth selection in yeast, the domain comes from the species named
Conditions: Homo sapiens

Question: With KKRTSIEVSVKGVLETHFLKCPKPAAQEISSLADSLQLEKEVVRVWFCNRRAKEKR [Q52A] as the variant, how does the abundance fitness read?
Answer: 0.203 ± 0.13

Question: Which abundance fitness does the source give for KKRTSIEVSVKGVLETHFLKCPKPAAQEISSLADSLQLEKEVVRVWFCNRRMKEKR [Q52M] here?
Answer: 0.071 ± 0.2

Question: Which abundance fitness does the source give for KKRTSIEVSVKGVLETHILKCPKPAAQEISSLADSLQLEKEVVRVWFCNRRQKEKR [F18I] here?
Answer: -0.851 ± 0.26

Question: For KKRTSIEVSVKGVLETHFLKCPKPAAQEISSLADSLQLEKEVVRVWFANRRQKEKR [C48A], which abundance fitness is on record?
Answer: -0.051 ± 0.18

Question: Which abundance fitness does the source give for KKRTSIEVSVKGVLETHFLKCPKPAAQEISSLADSLQLEKEVVRVWFINRRQKEKR [C48I] here?
Answer: 0.155 ± 0.2

Question: For KKRTSIESSVKGVLETHFLKCPKPAAQEISSLADSLQLEKEVVRVWFCNRRQKEKR [V8S], which abundance fitness is on record?
Answer: 0.546 ± 0.14

Question: For KKRTSIEVSVKGVLETHFLKCPKPAAQEISSLADSLQLETEVVRVWFCNRRQKEKR [K40T], which abundance fitness is on record?
Answer: 0.181 ± 0.16

Question: Which abundance fitness does the source give for KKRTSIEVSVKGVLETHFLKCPKPAAQEISSLADSLQLEKEVVRVWFCNRRQDEKR [K53D] here?
Answer: -0.232 ± 0.2

Question: For KKRTSIEVSVKGVLETHFLKCPKPAAQEISSLADSLQLEKEVGRVWFCNRRQKEKR [V43G], which abundance fitness is on record?
Answer: -0.687 ± 0.17

Question: For KKRTSIEVSVKGVLETHFLKCPKPAAQEISSLADSLQLEKEVWRVWFCNRRQKEKR [V43W], which abundance fitness is on record?
Answer: -1.19 ± 0.38

Question: With KKRTSIEVSVKGVLETHFLKCPKPAAQEISSLADSLQLEKEVVRVWFCIRRQKEKR [N49I] as the variant, how does the abundance fitness read?
Answer: -0.613 ± 0.24

Question: With KKRTSIEVSVKGVLETHFLKCPKPAAQEISSLADSLQLEKEVVRVWFCWRRQKEKR [N49W] as the variant, how does the abundance fitness read?
Answer: -0.885 ± 0.21

Question: With KKRTSIEVSVKGVLETHFLKCPKPFAQEISSLADSLQLEKEVVRVWFCNRRQKEKR [A25F] as the variant, how does the abundance fitness read?
Answer: -0.769 ± 0.21

Question: For KKRTSIEVNVKGVLETHFLKCPKPAAQEISSLADSLQLEKEVVRVWFCNRRQKEKR [S9N], which abundance fitness is on record?
Answer: 0.52 ± 0.28

Question: For KKRTSIEVSVKGVLETHFLKCPKPAAPEISSLADSLQLEKEVVRVWFCNRRQKEKR [Q27P], which abundance fitness is on record?
Answer: -0.761 ± 0.24

Question: With KKRTSIEVSVKGVLETHFLKCWKPAAQEISSLADSLQLEKEVVRVWFCNRRQKEKR [P22W] as the variant, how does the abundance fitness read?
Answer: -0.166 ± 0.22

Question: With KKRTSIEVSVKGVLETHFLKCKKPAAQEISSLADSLQLEKEVVRVWFCNRRQKEKR [P22K] as the variant, how does the abundance fitness read?
Answer: -0.315 ± 0.21

Question: With KKRTSEEVSVKGVLETHFLKCPKPAAQEISSLADSLQLEKEVVRVWFCNRRQKEKR [I6E] as the variant, how does the abundance fitness read?
Answer: -0.303 ± 0.2

Question: With KKRTSIEVSVKGVLETHFLKCPKPAAQEISSLADSLQLEKEVVRVSFCNRRQKEKR [W46S] as the variant, how does the abundance fitness read?
Answer: -0.693 ± 0.21

Question: Which abundance fitness does the source give for KKRTSIEVSVKGVLETHFLKCPKPAAQEISSLADSLQLEKEVVRVNFCNRRQKEKR [W46N] here?
Answer: -0.816 ± 0.29

Question: With KKRTSIEVSVKGVLETHFLKCPKPAAQEISSLADSLQAEKEVVRVWFCNRRQKEKR [L38A] as the variant, how does the abundance fitness read?
Answer: -0.744 ± 0.23

Question: With KKRTSIEVSVKGVLSTHFLKCPKPAAQEISSLADSLQLEKEVVRVWFCNRRQKEKR [E15S] as the variant, how does the abundance fitness read?
Answer: -0.845 ± 0.17

Question: For KKFTSIEVSVKGVLETHFLKCPKPAAQEISSLADSLQLEKEVVRVWFCNRRQKEKR [R3F], which abundance fitness is on record?
Answer: -0.226 ± 0.19

Question: For KKRTSIEVSVKGVLETHFLKCPKPAAQEISSLADSLQLFKEVVRVWFCNRRQKEKR [E39F], which abundance fitness is on record?
Answer: -0.735 ± 0.34

Question: Which abundance fitness does the source give for KKRTSIEVSVKGVLETHFLKCPKPAAQEISSLADSLQLIKEVVRVWFCNRRQKEKR [E39I] here?
Answer: -0.456 ± 0.25

Question: Which abundance fitness does the source give for KKRTSIEVSVKGVLETHFLKCPKPAAQEISSLADSLQLRKEVVRVWFCNRRQKEKR [E39R] here?
Answer: -0.572 ± 0.12

Question: Which abundance fitness does the source give for KQRTSIEVSVKGVLETHFLKCPKPAAQEISSLADSLQLEKEVVRVWFCNRRQKEKR [K2Q] here?
Answer: -0.637 ± 0.25

Question: Which abundance fitness does the source give for KLRTSIEVSVKGVLETHFLKCPKPAAQEISSLADSLQLEKEVVRVWFCNRRQKEKR [K2L] here?
Answer: -0.093 ± 0.15

Question: For KKRTSIEVSVKGALETHFLKCPKPAAQEISSLADSLQLEKEVVRVWFCNRRQKEKR [V13A], which abundance fitness is on record?
Answer: -0.082 ± 0.17

Question: With KKRTSIEVSVKGSLETHFLKCPKPAAQEISSLADSLQLEKEVVRVWFCNRRQKEKR [V13S] as the variant, how does the abundance fitness read?
Answer: -0.038 ± 0.25

Question: Which abundance fitness does the source give for KKRTSIEVSVKGVLETHFLKCPKPAAQEISSLADSLQLEKEVVRVWFCNRRQKERR [K55R] here?
Answer: -0.027 ± 0.14

Question: With KKRTSIEVSVKGVLETHFLKCPKPAAQEISSLADSLQLEKEVVRVWFCNRRQKESR [K55S] as the variant, how does the abundance fitness read?
Answer: -0.368 ± 0.17

Question: With KKRTSIEVSVKGVLETHFLKCPKPAAQEISSLADSLQLEKEVVREWFCNRRQKEKR [V45E] as the variant, how does the abundance fitness read?
Answer: 0.193 ± 0.14

Question: For KKRTSIEVSVKGVLETHFLFCPKPAAQEISSLADSLQLEKEVVRVWFCNRRQKEKR [K20F], which abundance fitness is on record?
Answer: -0.344 ± 0.15

Question: For KKRCSIEVSVKGVLETHFLKCPKPAAQEISSLADSLQLEKEVVRVWFCNRRQKEKR [T4C], which abundance fitness is on record?
Answer: -0.249 ± 0.18

Question: With KKRTSIEVSVKGVLETHFLKCPKPAAQEISSLAGSLQLEKEVVRVWFCNRRQKEKR [D34G] as the variant, how does the abundance fitness read?
Answer: -0.537 ± 0.15

Question: With KKRTSIEVSVKGVLETHFLKCPKPAAQEISSLADRLQLEKEVVRVWFCNRRQKEKR [S35R] as the variant, how does the abundance fitness read?
Answer: 0.152 ± 0.11

Question: For KKRTSIVVSVKGVLETHFLKCPKPAAQEISSLADSLQLEKEVVRVWFCNRRQKEKR [E7V], which abundance fitness is on record?
Answer: -0.362 ± 0.12

Question: Which abundance fitness does the source give for KKRTSIFVSVKGVLETHFLKCPKPAAQEISSLADSLQLEKEVVRVWFCNRRQKEKR [E7F] here?
Answer: -0.513 ± 0.12

Question: For KKRTSIEVSVKGVSETHFLKCPKPAAQEISSLADSLQLEKEVVRVWFCNRRQKEKR [L14S], which abundance fitness is on record?
Answer: -0.693 ± 0.11

Question: For KKRTSIEVSVKGVAETHFLKCPKPAAQEISSLADSLQLEKEVVRVWFCNRRQKEKR [L14A], which abundance fitness is on record?
Answer: -0.955 ± 0.15

Question: For KKRTSIEVSVKGVLETHFLKCPKPAAQEISSLADSLQLEKEVVRVWFCNRAQKEKR [R51A], which abundance fitness is on record?
Answer: -0.309 ± 0.14

Question: Which abundance fitness does the source give for KKRTSIEVSVKGVLETHFLKCPKPAAQEISSLADSLQLEKEVVRVWFCNRVQKEKR [R51V] here?
Answer: -0.424 ± 0.13

Question: Which abundance fitness does the source give for KKRTSIEVSVKGVLETHFLKCPKPAAQEISSLADSLQLEKEIVRVWFCNRRQKEKR [V42I] here?
Answer: -0.49 ± 0.32

Question: For KKRTSIEVSVKGVLETHFLKCPKPAAQEISSLADSLQLEKEVVYVWFCNRRQKEKR [R44Y], which abundance fitness is on record?
Answer: -0.643 ± 0.34

Question: Which abundance fitness does the source give for KKRTSIEVSVKGVLETHFLKCPKPAAQEISSLADSLQLEKEVVCVWFCNRRQKEKR [R44C] here?
Answer: -0.801 ± 0.38

Question: With KKRTSIEVSVKGVLETHFLKCPKPAAQEISSLADSLQLEKEVVVVWFCNRRQKEKR [R44V] as the variant, how does the abundance fitness read?
Answer: -0.84 ± 0.16
